The source of these data is US20080241155A1 (Human Genome Sciences, published 2008).

Assay [1] addresses T1, TRAIL (TNF-related apoptosis-inducing ligand), soluble (UniProt P50591 95-281, limits assumed).
T1 construct: also called Apo-2 ligand; Apo-2L
In words: receptor-Fc / ligand co-precipitation, immunoblot.

The target of assay [2] is T2, TNFα (tumor necrosis factor alpha) (UniProt P01375 77-233, limits assumed).
T2 construct: also called TNF alpha
In words: co-precipitation from mixed conditioned media with protein G-Sepharose, immunoblot. In general terms: Immunoblotting shows a protein as a band on a membrane.

The target of another assay is T3, Fas ligand (UniProt P48023 130-281, limits assumed).
T3 construct: Detected by immunoblotting with an antibody to FasL (Pharmingen)
T3 sequence (looked up): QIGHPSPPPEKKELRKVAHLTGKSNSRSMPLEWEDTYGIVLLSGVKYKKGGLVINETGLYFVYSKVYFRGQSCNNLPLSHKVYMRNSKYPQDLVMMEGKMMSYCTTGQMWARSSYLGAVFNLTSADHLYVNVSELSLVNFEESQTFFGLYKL
In words: receptor-Fc / ligand co-precipitation, immunoblot.

T1 sequence (P50591 95-281 limits assumed): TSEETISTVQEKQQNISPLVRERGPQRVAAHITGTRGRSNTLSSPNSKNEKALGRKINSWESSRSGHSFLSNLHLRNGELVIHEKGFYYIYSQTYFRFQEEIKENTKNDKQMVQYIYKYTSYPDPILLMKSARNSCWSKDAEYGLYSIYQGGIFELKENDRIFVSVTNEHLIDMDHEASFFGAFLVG
T2 sequence (P01375 77-233 limits assumed): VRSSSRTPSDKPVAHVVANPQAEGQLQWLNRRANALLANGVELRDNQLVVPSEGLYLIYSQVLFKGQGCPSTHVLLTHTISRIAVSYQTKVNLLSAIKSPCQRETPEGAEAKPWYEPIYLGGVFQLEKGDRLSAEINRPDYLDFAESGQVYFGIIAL

B1: TNFR1-Fc (extracellular domain of TNFR-1 expressed as an Fc fusion) (Fc fusion, UniProt P19438 30-211, looked up)
chain: LVPHLGDREKRDSVCPQGKYIHPQNNSICCTKCHKGTYLYNDCPGPGQDTDCRECESGSFTASENHLRHCLSCSKCRKEMGQVEISSCTVDRDTVCGCRKNQYRHYWSENLFQCFNCSLCLNGTVHLSCQEKQNTVCTCHAGFFLRENECVSCSNCKKSLECTKLCLPQIENVKGTEDSGTT
notes: extracellular domain; not shown: Fc portion of human IgG
For B1, the binding result in assay [1] is “no binding”.

B2: CD95-Fc (extracellular domain of CD-95 / Fas expressed as an Fc fusion) (Fc fusion, UniProt P25445 26-173, looked up)
chain: QVTDINSKGLELRKTVTTVETQNLEGLHHDGQFCHKPCPPGERKARDCTVNGDEPDCVPCQEGKEYTDKAHFSSKCRRCRLCDEGHGLEVEINCTRTQNTKCRCKPNFFCNSTVCEHCDPCTKCEHGIIKECTLTSNTKCKEEGSRSN
notes: extracellular domain; also called Fas-Fc; Fc-extracellular domain of Fas; not shown: Fc portion of human IgG
For B2, the binding result in assay [1] is given as “no binding”.

B3: DR4-Fc (soluble extracellular ligand binding domain of DR4, amino acids 110 to 239, fused to the Fc portion of human IgG) (Fc fusion)
chain: TIKLHDQSIGTQQWEHSPLGELCPPGSHRSERPGACNRCTEGVGYTNASNNLFACLPCTACKSDEEERSPCTTTRNTACQCKPGTFRNDNSAEMCRKCSTGCPRGMVKVKDCTPWSDIECVHKESGNGHN
notes: Cloned into a modified pCMV1FLAG vector for in-frame fusion with human IgG Fc and expressed in 293 cells; used as conditioned medium; also called soluble extracellular DR4-Fc fusion; Fc-extracellular domain of DR4; not shown: Fc portion of human immunoglobulin (IgG)
For B3, the binding result (in assay [2]; with Fas ligand) was “no binding” each time.
